Test results: the Immune Epitope Database (IEDB)

What was measured:
[1] = biological target: HLA-B*53:01; assay: IEDB peptide-MHC binding, purified MHC/competitive/radioactivity; filed as Kd, often an IC50 or EC50 that approximates it; ≥ and ≤ were set here for values at or beyond the usual limits of such assays
[2] = biological target: HLA-A*30:01; assay: as above
[3] = biological target: HLA-A*69:01; assay: IEDB peptide-MHC binding, purified MHC/direct/fluorescence; filed as Kd, often an IC50 or EC50 that approximates it; ≥ and ≤ were set here for values at or beyond the usual limits of such assays
[4] = biological target: HLA-A*02:01; assay: as above
[5] = biological target: HLA-A*11:01; assay: as above
[6] = biological target: HLA-A*03:01; assay: as above
[7] = biological target: HLA-B*51:01; assay: IEDB peptide-MHC binding, purified MHC/competitive/radioactivity; filed as Kd, often an IC50 or EC50 that approximates it; ≥ and ≤ were set here for values at or beyond the usual limits of such assays
[8] = biological target: HLA-B*35:01; assay: as above
[9] = biological target: HLA-A*02:01; assay: IEDB peptide-MHC binding, purified MHC/competitive/fluorescence; ≥ and ≤ were set here for values at or beyond the usual limits of such assays
[10] = biological target: HLA-A*26:01; assay: IEDB peptide-MHC binding, purified MHC/competitive/radioactivity; filed as Kd, often an IC50 or EC50 that approximates it; ≥ and ≤ were set here for values at or beyond the usual limits of such assays
[11] = biological target: HLA-B*40:01; assay: IEDB peptide-MHC binding, purified MHC/direct/fluorescence; filed as Kd, often an IC50 or EC50 that approximates it; ≥ and ≤ were set here for values at or beyond the usual limits of such assays
[12] = biological target: HLA-B*07:02; assay: IEDB peptide-MHC binding, purified MHC/competitive/radioactivity; filed as Kd, often an IC50 or EC50 that approximates it; ≥ and ≤ were set here for values at or beyond the usual limits of such assays
[13] = biological target: HLA-A*01:01; assay: IEDB peptide-MHC binding, purified MHC/direct/fluorescence; filed as Kd, often an IC50 or EC50 that approximates it; ≥ and ≤ were set here for values at or beyond the usual limits of such assays
[14] = biological target: HLA-A*01:01; assay: IEDB peptide-MHC binding, purified MHC/competitive/radioactivity; filed as Kd, often an IC50 or EC50 that approximates it; ≥ and ≤ were set here for values at or beyond the usual limits of such assays
[15] = biological target: HLA-B*27:05; assay: IEDB peptide-MHC binding, purified MHC/direct/fluorescence; filed as Kd, often an IC50 or EC50 that approximates it; ≥ and ≤ were set here for values at or beyond the usual limits of such assays
[16] = biological target: HLA-B*58:01; assay: as above; settings: source organism: SARS-CoV1
[17] = biological target: HLA-B*15:01; assay: as above
[18] = biological target: HLA-A*31:01; assay: IEDB peptide-MHC binding, purified MHC/competitive/radioactivity; filed as Kd, often an IC50 or EC50 that approximates it; ≥ and ≤ were set here for values at or beyond the usual limits of such assays; settings: source organism: SARS coronavirus Tor2
[19] = biological target: HLA-A*33:01; assay: as above; settings: source organism: SARS coronavirus Tor2
[20] = biological target: HLA-A*68:01; assay: as above; settings: source organism: SARS coronavirus Tor2
[21] = biological target: HLA-B*07:02; assay: IEDB peptide-MHC binding, purified MHC/direct/fluorescence; filed as Kd, often an IC50 or EC50 that approximates it; ≥ and ≤ were set here for values at or beyond the usual limits of such assays; settings: source organism: Mycobacterium tuberculosis str. Haarlem
[22] = source organism: Dengue virus 4 Philippines/H241/1956
[23] = source organism: Dengue virus 4 Dominica/814669/1981
[24] = source organism: Dengue virus 1 Brazil/97-11/1997
[25] = source organism: Yersinia pestis
[26] = source organism: Francisella tularensis subsp. holarctica LVS
[27] = source organism: Vaccinia virus
[28] = source organism: Zaire ebolavirus
[29] = source organism: Dengue virus 3 Martinique/1243/1999
[30] = source organism: Sudan ebolavirus
[31] = source organism: Dengue virus 2 Jamaica/1409/1983
[32] = source organism: Rickettsia sibirica
[33] = source organism: Mammarenavirus juninense
[34] = source organism: Bacillus cereus
[35] = source organism: West Nile virus
[36] = source organism: Vibrio vulnificus
[37] = source organism: Brucella abortus 2308

Question: LIGLSSRATW was tested. Which Kd [1, 22] did it give?
Answer: Its Kd is 0.378 µM.

Question: For CTKHSKDFA, which Kd ([2]; source organism: Vaccinia virus WR) is on record?
Answer: Its Kd is 0.231 µM.

Question: How did the Kd [1, 23] turn out when LATGPILTLW was run?
Answer: Its Kd is 0.0151 µM.

Question: For NAICSAVPVD, which Kd [2, 24] is on record?
Answer: The Kd was 12.1 µM.

Question: What does the source list for WQNLAWAGV?
Answer: Kd [3, 25]: 7 µM; Kd [4, 25]: 0.0536 µM

Question: Which results are given for KLYGLSQGY?
Answer: Kd [5, 26]: 0.21 µM; Kd [6, 26]: 0.0047 µM

Question: With FPQSNSPIED as the sequence, how does the Kd [1, 22] read?
Answer: Its Kd is 1.83 µM.

Question: What about the Kd [7, 22] of the same sequence?
Answer: The Kd was ≥ 37.5 µM.

Question: What about the Kd [8, 22] of the same sequence?
Answer: The Kd was 0.63 µM.

Question: With CIDILRSLE as the sequence, how does the IC50 [9, 27] read?
Answer: Its IC50 is 51 µM.

Question: With VAFLILPQA as the sequence, how does the IC50 [9, 28] read?
Answer: Its IC50 is 0.52 µM.

Question: ETLGEKWKRQ was tested. Which Kd [10, 24] did it give?
Answer: Its Kd is 12.3 µM.

Question: With LPIRYQTTA as the sequence, how does the Kd [7, 29] read?
Answer: Its Kd is 15.9 µM.

Question: Which IC50 ([9]; source organism: Vaccinia virus Copenhagen) does the source give for DSLSSQMTS here?
Answer: Its IC50 is ≥ 240 µM.

Question: For LEEEGVTPL, which Kd ([11]; source organism: Corynebacterium diphtheriae) is on record?
Answer: Its Kd is 0.0434 µM.

Question: With AFIHIPGDT as the sequence, how does the IC50 ([9]; source organism: Variola virus) read?
Answer: The IC50 was 24.8 µM.

Question: Which IC50 [9, 27] does the source give for RAADEPPLV here?
Answer: Its IC50 is 2.83 µM.

Question: For QLANETTQA, which IC50 [9, 30] is on record?
Answer: The IC50 was 25.9 µM.

Question: LLFEVEQEI was tested. Which Kd ([4]; source organism: Influenza A virus (A/Saudi Arabia/7971/2000(H1N1))) did it give?
Answer: Its Kd is 0.0157 µM.

Question: Which Kd [7, 23] does the source give for LPLPWTAGAD here?
Answer: Its Kd is ≥ 69.6 µM.

Question: What about the Kd [8, 23] of the same sequence?
Answer: Its Kd is 8.06 µM.

Question: SPPETQKAEL was tested. Which Kd [12, 29] did it give?
Answer: Its Kd is 0.0284 µM.

Question: Which Kd ([5]; source organism: Homo sapiens) does the source give for CSDDGFWSK here?
Answer: Its Kd is 0.138 µM.

Question: And the Kd ([13]; source organism: Homo sapiens)?
Answer: Its Kd is 0.423 µM.

Question: And the Kd ([6]; source organism: Homo sapiens)?
Answer: Its Kd is 11 µM.

Question: With IPKIYGGPIS as the sequence, how does the Kd ([12]; source organism: Dengue virus 1 Singapore/S275/1990) read?
Answer: Its Kd is 0.508 µM.

Question: VAEIQPQWI was tested. Which Kd [7, 22] did it give?
Answer: Its Kd is ≥ 20.9 µM.

Question: FTTNIWLKL was tested. Which Kd [14, 31] did it give?
Answer: Its Kd is 1.33 µM.

Question: DLNKVIQFL was tested. Which Kd ([3]; source organism: Haemophilus influenzae) did it give?
Answer: The Kd was 0.352 µM.

Question: With TPRAKRGTA as the sequence, how does the Kd [12, 24] read?
Answer: The Kd was 0.227 µM.

Question: For RRLKAEAQM, which Kd ([15]; source organism: Mammarenavirus lassaense) is on record?
Answer: Its Kd is 0.053 µM.

Question: NSEQGGKAY was tested. Which Kd [14, 24] did it give?
Answer: The Kd was 0.482 µM.

Question: KLYFWIPWS was tested. Which Kd [3, 32] did it give?
Answer: Its Kd is ≥ 20 µM.

Question: And the Kd [4, 32]?
Answer: The Kd was 0.197 µM.

Question: For FLPKAAYAL, which Kd [4, 33] is on record?
Answer: Its Kd is 0.0028 µM.

Question: For VSWKPWSSK, which Kd ([6]; source organism: Cryptosporidium parvum) is on record?
Answer: The Kd was 0.0507 µM.

Question: How did the Kd [16] turn out when VVYRGTTTY was run?
Answer: Its Kd is 0.281 µM.

Question: And the Kd ([17]; source organism: SARS-CoV1)?
Answer: Its Kd is 0.11 µM.

Question: What about the Kd [18] of the same sequence?
Answer: The Kd was 9.74 µM.

Question: What about the Kd [19] of the same sequence?
Answer: The Kd was ≥ 77.7 µM.

Question: What about the Kd [20] of the same sequence?
Answer: The Kd was 8.79 µM.

Question: Which Kd ([14]; source organism: Homo sapiens) does the source give for FLGGNEVGKTY here?
Answer: Its Kd is 0.198 µM.

Question: Which Kd ([17]; source organism: Mycobacterium tuberculosis F11) does the source give for ALSTGAGAY here?
Answer: Its Kd is 0.436 µM.

Question: Which Kd [3, 34] does the source give for GIYCTVPFI here?
Answer: The Kd was 0.388 µM.

Question: What about the Kd [4, 34] of the same sequence?
Answer: The Kd was 0.111 µM.

Question: For GMNAPDDLV, which IC50 [9, 28] is on record?
Answer: Its IC50 is 6.3 µM.

Question: How did the Kd [1, 31] turn out when SVTRLENLMW was run?
Answer: The Kd was 0.437 µM.

Question: How did the IC50 [9, 30] turn out when WTLDANINA was run?
Answer: Its IC50 is 3.85 µM.

Question: How did the Kd [21] turn out when GPRQWRWPL was run?
Answer: Its Kd is 0.0142 µM.

Question: How did the Kd [17, 35] turn out when YQTDSGCWY was run?
Answer: Its Kd is 1.34 µM.

Question: What about the Kd [13, 35] of the same sequence?
Answer: The Kd was 6.06 µM.

Question: What does the source list for VQQESSFVM?
Answer: Kd ([17]; source organism: SARS-CoV1): 0.0674 µM; Kd ([11]; source organism: SARS-CoV1): 7.46 µM; Kd ([5]; source organism: SARS-CoV1): ≥ 20.7 µM; Kd ([15]; source organism: SARS-CoV1): 4.77 µM; Kd ([4]; source organism: SARS-CoV1): 1.07 µM

Question: How did the Kd [8, 24] turn out when NPWMEDKTH was run?
Answer: Its Kd is 2.3 µM.

Question: How did the Kd [3, 36] turn out when SAWESFWRI was run?
Answer: Its Kd is 0.0014 µM.

Question: And the Kd [4, 36]?
Answer: The Kd was 0.0128 µM.

Question: How did the Kd [1, 31] turn out when FPQSNAPIMD was run?
Answer: The Kd was 0.113 µM.

Question: And the Kd [7, 31]?
Answer: Its Kd is 4.16 µM.

Question: Which Kd ([10]; source organism: Dengue virus 2 Peru/IQT2913/1996) does the source give for ESALNDTWKI here?
Answer: Its Kd is ≥ 69.7 µM.

Question: How did the Kd [14, 23] turn out when NSALTLHWF was run?
Answer: The Kd was 2.32 µM.

Question: Which Kd [12, 22] does the source give for NPTTLIASL here?
Answer: The Kd was 0.21 µM.

Question: Which IC50 [9, 28] does the source give for GTTFAEGVV here?
Answer: Its IC50 is 31.1 µM.

Question: Which Kd [10, 23] does the source give for DTVTYKCPL here?
Answer: Its Kd is 1.26 µM.

Question: For IPERSWNSGY, which Kd [8, 24] is on record?
Answer: Its Kd is 0.155 µM.

Question: How did the Kd ([11]; source organism: Mycobacterium tuberculosis) turn out when REAKATRPL was run?
Answer: The Kd was 0.0808 µM.

Question: Which Kd ([6]; source organism: Mycobacterium tuberculosis variant bovis) does the source give for GTHPTTTYK here?
Answer: The Kd was 0.78 µM.

Question: With DLSLGNQEL as the sequence, how does the Kd [3, 37] read?
Answer: Its Kd is ≥ 20 µM.

Question: And the Kd [4, 37]?
Answer: Its Kd is ≥ 10 µM.

Question: What does the source list for LPTYLSSRAK?
Answer: Kd [7, 22]: ≥ 49.8 µM; Kd [8, 22]: 15.1 µM

Question: With VTEEIAVQNW as the sequence, how does the Kd [14, 31] read?
Answer: The Kd was ≥ 38.7 µM.

Question: For LGVATAHGS, which IC50 [9, 28] is on record?
Answer: Its IC50 is ≥ 277 µM.

Question: For TLHFLTRGK, which Kd [6, 33] is on record?
Answer: Its Kd is 0.344 µM.

Question: With YTDRKWCFD as the sequence, how does the Kd [14, 29] read?
Answer: The Kd was 0.597 µM.

Question: How did the Kd ([13]; source organism: SARS-CoV1) turn out when SSSLTSLLK was run?
Answer: The Kd was 1.11 µM.

Question: What about the Kd [18] of the same sequence?
Answer: Its Kd is 4.76 µM.

Question: And the Kd [19]?
Answer: Its Kd is ≥ 41.5 µM.

Question: And the Kd [20]?
Answer: The Kd was 9.33 µM.
